Usually Kd stands for the constant that tells how readily two partners part at equilibrium. Low values mean higher affinity, high ones lower affinity. By koff is commonly meant a measure of how fast the partners let go of each other. A low value points to slow dissociation. By kon is commonly meant the rate constant with which the complex forms. Read a low kon as slow association.

Consider one substance from article PMC4856543.

The target in assay [1] is ID2 (inner domain of gp120 stabilized by the C65-C115 disulfide, isolate 93TH057), from 293 cells (HIV-1 clade A/E isolate 93TH057). As to the kind of experiment: ITC; iTC200, 25°C, A32 IgG with FLSC or ID2; heats of dilution subtracted. A general note: Isothermal titration calorimetry measures the heat released or taken up as one component is titrated into another.
For assay [2], the target named is single-chain gp120BaL-sCD4 complex (full-length single-chain) (HIV-1 isolate BaL | not stated). Described as above.
Assay [3] concerns the target ID1 (independent inner domain of gp120, first design, isolate 93TH057) (HIV-1 clade A/E isolate 93TH057). In words: SPR; Biacore T-100, 25°C, 1:1 Langmuir model. On the technique in general: SPR reads the build-up and loss of mass on a sensor chip optically.
Assay [4] has as its target monomeric full-length BaL gp120 (HIV-1 isolate BaL). As to the kind of experiment: SPR; Biacore T-100, 25°C, 1:1 Langmuir model.
Assay [5] deals with single-chain gp120BaL-sCD4 complex (full-length single-chain) (HIV-1 isolate BaL | not stated). In words: SPR; Biacore T-100, 25°C, 1:1 Langmuir model.
Assay [6] concerns the target ID2, stabilized inner domain of HIV-1 gp120 of clade A/E isolate 93TH057 (HIV-1 clade A/E isolate 93TH057). In words: SPR; antibody immobilised, ID2 passed over at 0-200 nM; Biacore T-100, 25°C; 1:1 Langmuir model, BIAevaluation software; two experiments.

Turning to mAb A32 (antibody), the Kd in assay [1] turned out to be 9 nM; in assay [2], 11.5 nM; in assay [3], 9.3 nM; in assay [4], 3.2 nM; in assay [5], 0.23 nM; in assay [6], 0.17 nM. The results for the dH in assay [1] and in assay [2] were -2.55 kcal/mol and -3.15 kcal/mol, respectively. The koff stood at 0.000785 s⁻¹ in assay [3], 0.000437 s⁻¹ in assay [4], 0.000102 s⁻¹ in assay [5] and 0.000275 s⁻¹ in assay [6]. Further, the kon amounted to 85000 M⁻¹ s⁻¹ in assay [3], 139000 M⁻¹ s⁻¹ in assay [4], 443000 M⁻¹ s⁻¹ in assay [5] and 1.65e+06 M⁻¹ s⁻¹ in assay [6].
